Results on 33 molecules are retold here after publication PMC5431086, “The Rational Design of Therapeutic Peptides for Aminopeptidase N using a Substrate-Based Approach” (Scientific Reports, 2017).

Starred links: 1 amine or outer side, 2 acyl side, 3 side chain; linkers in the order of their positions; H or OH if unused. Positions of bridges follow the written chain, without caps; N, C: chain ends. No end group written: not given here. *: point of attachment. Suc = O=C(CCC(=O)[*:2])[*:1]; Cbz = O=C(OCc1ccccc1)*; For = O=C*

The target of one test is aminopeptidase N on the surface of PC3 cells (human (endogenous in PC3)) (UniProt P15144).
Sequence of aminopeptidase N on the surface of PC3 cells (human (endogenous in PC3)) (P15144 whole entry): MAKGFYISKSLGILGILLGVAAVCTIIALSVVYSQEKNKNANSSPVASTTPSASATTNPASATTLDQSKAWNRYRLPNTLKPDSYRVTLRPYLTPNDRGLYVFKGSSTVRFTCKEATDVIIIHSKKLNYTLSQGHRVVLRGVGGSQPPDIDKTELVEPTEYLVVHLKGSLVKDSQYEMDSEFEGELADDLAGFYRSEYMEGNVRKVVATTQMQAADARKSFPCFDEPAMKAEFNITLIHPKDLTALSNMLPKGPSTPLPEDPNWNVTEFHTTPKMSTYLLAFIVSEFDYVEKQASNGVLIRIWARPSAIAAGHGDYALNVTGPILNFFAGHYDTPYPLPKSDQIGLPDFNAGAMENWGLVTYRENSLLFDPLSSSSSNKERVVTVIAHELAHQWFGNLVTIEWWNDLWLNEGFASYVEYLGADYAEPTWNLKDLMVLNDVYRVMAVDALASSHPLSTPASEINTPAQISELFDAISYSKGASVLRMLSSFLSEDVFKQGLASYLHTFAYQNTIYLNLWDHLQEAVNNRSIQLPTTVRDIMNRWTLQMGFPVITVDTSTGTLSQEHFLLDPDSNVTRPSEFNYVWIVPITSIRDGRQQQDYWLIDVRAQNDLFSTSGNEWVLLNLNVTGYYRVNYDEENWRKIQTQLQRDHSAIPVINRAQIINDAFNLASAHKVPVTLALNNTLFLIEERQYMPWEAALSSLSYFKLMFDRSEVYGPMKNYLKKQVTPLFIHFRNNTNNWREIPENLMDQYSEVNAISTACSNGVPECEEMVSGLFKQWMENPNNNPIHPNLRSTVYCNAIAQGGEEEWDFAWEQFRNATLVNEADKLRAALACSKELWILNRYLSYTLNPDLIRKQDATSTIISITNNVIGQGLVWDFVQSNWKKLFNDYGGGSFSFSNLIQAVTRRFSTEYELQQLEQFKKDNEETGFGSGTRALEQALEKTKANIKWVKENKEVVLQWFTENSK
Assay: not given
CLHSPWC (disulfide 1-7) [cyc-LHSPW] showed a tumor volume of PC3 xenografts at day 35, mice treated with 40 mg/kg cyc-LHSPW t.i.w. x4 (saline and cyc-NGR arms >1000 mm^3) of 309 mm^3.

A further test has as its target chymotrypsin. The test can be described thus: enzyme inhibition assay (panel of proteases); cyc-LHSPW tested against a panel of cancer-associated proteases (Fig. 5A); conditions not given.
With CLHSPWC (disulfide 1-7) [cyc-LHSPW], the Ki was > 100 µM.

In another test the target is recombinant human aminopeptidase N (hAPN) (human) (UniProt P15144). The test can be described thus: enzyme inhibition assay (competition with the fluorogenic substrate H-Ala-AMC); 0.1 μM APN, 100 μM H-Ala-AMC, 100 mM Tris pH 7.2, Brij 35 0.0002% w/v, 37 °C, triplicate; inhibition competitive, Ki from the IC50 by the Cheng-Prusoff equation.
On to DARK, for which the IC50 was > 500 µM.

With FYLRE, the IC50 was > 500 µM. Suc-HSPW [Suc-HSPW]: the Ki is > 500 µM.

For Cbz-HSPW [Cbz-HSPW], the Ki was > 500 µM. In the case of EPKVA, the concentration for half-maximal inhibition (IC50) is > 500 µM.

For the molecule Cbz-LHSPW [Cbz-LHSPW], the Ki was > 500 µM. With AHSPW, the IC50 was 9.4 µM. Turning to DSTF, the IC50 was > 500 µM. As for For-LHSPW [For-LHSPW], the Ki is > 500 µM. Same read-out and setting: to CLHSC (disulfide 1-5) [cyc-LHS] belongs > 500 µM.

For the molecule AHSTF, the concentration for half-maximal inhibition (IC50) was > 500 µM. Regarding CLDSTFC (disulfide 1-7) [cyc-LDSTF], the Ki is > 500 µM. Same read-out and setting: the figure for CLHSPWC (disulfide 1-7) [cyc-LHSPW] is 24.7 µM. For the molecule SKSGQ, the IC50 is > 500 µM. In the case of Ac-LHSPW [Ac-LHSPW], the Ki is > 500 µM. On to RDLVD, for which the IC50 is > 500 µM. Turning to AHLFN, the IC50 was > 500 µM. Turning to CADARKC (disulfide 1-7) [cyc-ADARK], the Ki was > 500 µM.

As for ADARK, the half-maximal inhibitory concentration (IC50) is > 500 µM.

As to CAHSPWC (disulfide 1-7) [cyc-AHSPW], the Ki is > 500 µM. On to LHSPW, for which the 50% inhibitory concentration (IC50) turned out to be 10.6 µM. On the same count and under the same terms, the figure for INDFL is > 500 µM; for EHSPW it is 115 µM; for HSPW it is 43.3 µM.

As for For-HSPW [For-HSPW], the Ki is > 500 µM. In the case of LDSTF, the IC50 was > 500 µM. On the same count and under the same terms, the figure for FDWWG is > 500 µM.

For Suc-LHSPW [Suc-LHSPW], the Ki is > 500 µM. The same measure, in the same setting: the figure for Ac-HSPW [Ac-HSPW] is > 500 µM. Consider PHSPW, for which the IC50 is 82.5 µM. CLHSPC (disulfide 1-6) [cyc-LHSP]: the Ki amounted to 121 µM. Still for that read-out and setting: the figure for CPHSPWC (disulfide 1-7) [cyc-PHSPW] is > 500 µM. For FSLSK, the IC50 was > 500 µM.

In general, Ki refers to the equilibrium dissociation constant of an inhibitor or competing ligand from its target. One may read the IC50 as the concentration needed to halve the response being measured.
